No end group written: not given here.
Assays:
Format in all cases: cell-based
[1] = target: T1, FP receptor (Homo sapiens, UniProt P43088); assay: Phosphoinositide hydrolysis in permeabilized A549 cells loaded with synthetic peptides, stimulated with PGF2α; conditions: dose-response in permeabilized A549 cells stimulated with PGF2α; FIG. 2B; read-out: half maximal inhibitory concentration
T1 construct: endogenous in cells; host or cells: A549 lung carcinoma cells (ATCC CCL185)

[2] = target: T1, FP receptor; assay: Phosphoinositide hydrolysis in A549 cells stably expressing the peptides, stimulated with PGF2α; conditions: peptide stably expressed intracellularly in A549 cells; 1 μM PGF2α for 30 min; n=3; FIG. 1A
Procedure: (§1) A549 lung carcinoma cells (ATCC Accession No.: CCL185, American Type Culture Collection, Rockville, Md. 20852) were cultured in Dulbecco's modified Eagles medium (DMEM) with 10% fetal bovine serum (FBS) and antibiotics, penicillin (10 U/ml) and streptomycin (10 μg/ml) in a humidified atmosphere containing 5% CO2 at 37° C. The cells were trypsinized and plated in 6-well tissue culture dishes at 2×10^5 cells/well, a day before commencing the experiments.
(§2) The expression plasmids carrying the third (PCP-1) and the fourth (PCP-2) intracellular domains were introduced into A549 cells using Transfectamine lipid (GIBCO Life Technologies, Burlington, ON). Three (3) micrograms of DNA and 16 μg of lipid were mixed in 200 μl of water and incubated at room temperature for 45 min. Then, the lipid-DNA complexes were diluted with 0.8 ml of Opti-MEM™ (GIBCO Life Technologies, Burlington, ON). The cells were washed twice with Hank's Balanced Salt Solution and incubated with lipid-DNA complexes for 6 hours. An equal volume of DMEM with 20% FBS was added and the cells were kept in the incubator overnight. On the next day, the medium was replaced with DMEM containing 10% FBS and antibiotics and incubated for another 24 hours. […]

[3] = target: T2, EP1 (Homo sapiens, UniProt P34995); assay: Phosphoinositide hydrolysis in A549 cells stably expressing the peptides, stimulated with PGE2 (specificity); conditions: peptide stably expressed intracellularly in A549 cells; 1 μM PGE2 for 30 min; FIG. 1B
T2 construct: a related prostaglandin receptor expressed in these cells; endogenous in cells; host or cells: A549 lung carcinoma cells (ATCC CCL185)
T2 sequence (P34995 1-402): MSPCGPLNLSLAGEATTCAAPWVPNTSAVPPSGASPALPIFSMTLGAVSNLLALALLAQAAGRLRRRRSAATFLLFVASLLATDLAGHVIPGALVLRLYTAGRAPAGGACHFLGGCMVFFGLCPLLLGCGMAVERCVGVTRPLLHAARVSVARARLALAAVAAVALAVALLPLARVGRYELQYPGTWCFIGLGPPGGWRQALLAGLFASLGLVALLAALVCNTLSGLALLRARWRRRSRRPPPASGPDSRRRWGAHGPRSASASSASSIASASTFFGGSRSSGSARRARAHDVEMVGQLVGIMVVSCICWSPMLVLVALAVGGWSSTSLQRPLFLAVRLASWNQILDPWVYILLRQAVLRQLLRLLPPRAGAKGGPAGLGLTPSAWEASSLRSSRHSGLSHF
Procedure: as §1, §2

T1 sequence (P43088 whole entry): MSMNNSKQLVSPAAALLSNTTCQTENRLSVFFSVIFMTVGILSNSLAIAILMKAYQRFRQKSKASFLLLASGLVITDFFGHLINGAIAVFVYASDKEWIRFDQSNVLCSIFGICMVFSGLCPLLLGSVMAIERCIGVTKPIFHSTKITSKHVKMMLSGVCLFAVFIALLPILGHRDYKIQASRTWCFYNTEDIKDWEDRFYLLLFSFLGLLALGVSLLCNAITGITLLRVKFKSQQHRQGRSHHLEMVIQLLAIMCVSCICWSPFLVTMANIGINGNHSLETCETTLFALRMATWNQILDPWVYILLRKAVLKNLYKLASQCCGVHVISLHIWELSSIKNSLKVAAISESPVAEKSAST

Substance	IC50 [1]	ligand-stimulated phosphoinositide hydrolysis (fold stimulation over unstimulated controls) [2]	inositol phosphate generation by EP1 receptor [3]
KDTILQLNLKEYNLV-NH2 [PCP-4, KDTILQLNLK EYNLV-NH2]	50 µM		
RKAVLKNLYKLASQCCGVHVISLHIWELSSIKNSLKVAAISESPVAEKSAST (RKAVLKNLYKLASQCCGVHVISLHIWELSSIKNSLKVAAISESPVAEKSAST) [PCP-2]		inhibited	did not affect
RVKFKSQQHR QGRSHHLEM (RVKFKSQQHRQGRSHHLEM) [PCP-1]		inhibited	did not affect
